Reference: paper PMC6718413, “Improving mass spectrometry analysis of protein structures with arginine-selective chemical cross-linkers” (Nature Communications, 2019)

T1: Utp4 (UniProt Q06679 1-776)
T1 construct: Utp4, subunit of UtpA; S. cerevisiae is surmised from PDB 5WLC and the printed residue numbers; also called His6-tagged Utp4; Upt4; source: E. coli BL21(DE3), purified (HisTrap, heparin)
T1 sequence: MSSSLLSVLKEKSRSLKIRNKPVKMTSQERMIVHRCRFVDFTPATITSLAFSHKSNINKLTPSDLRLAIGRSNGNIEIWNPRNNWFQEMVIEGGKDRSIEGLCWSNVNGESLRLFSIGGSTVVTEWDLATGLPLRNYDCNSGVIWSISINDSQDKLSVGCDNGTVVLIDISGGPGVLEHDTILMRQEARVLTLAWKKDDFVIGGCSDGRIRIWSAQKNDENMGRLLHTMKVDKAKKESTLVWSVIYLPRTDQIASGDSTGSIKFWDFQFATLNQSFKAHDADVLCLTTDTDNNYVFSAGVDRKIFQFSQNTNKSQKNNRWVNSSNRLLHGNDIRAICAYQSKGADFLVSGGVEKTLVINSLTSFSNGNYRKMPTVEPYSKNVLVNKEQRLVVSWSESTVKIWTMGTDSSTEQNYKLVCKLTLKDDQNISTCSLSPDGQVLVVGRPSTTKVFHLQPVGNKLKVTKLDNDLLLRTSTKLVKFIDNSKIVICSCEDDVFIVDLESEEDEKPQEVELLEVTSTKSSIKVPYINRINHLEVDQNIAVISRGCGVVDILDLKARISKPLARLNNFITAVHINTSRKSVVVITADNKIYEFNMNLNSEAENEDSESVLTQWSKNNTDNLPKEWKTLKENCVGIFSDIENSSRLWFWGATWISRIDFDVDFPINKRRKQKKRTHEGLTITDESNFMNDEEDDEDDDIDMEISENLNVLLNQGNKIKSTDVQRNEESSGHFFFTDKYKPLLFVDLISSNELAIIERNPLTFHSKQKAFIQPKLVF

B1: Utp5–Utp15 CTD complex (complex)
chain 1: TTGTVTVILSQALQSNDHSLLETVLNNRDERVIRDTIFRLKPALAVILLERLAERIARQTHRQGPLNVWVKWCLIIHGGYLVSIPNLMSTLSSLHSTLKRRSDLLPRLLALDARLDCTINKFKTLNYEAGDIHSSEPVVEEDEDDVEYNEELDDAGLIE
chain 2: RSQRRMRAFERNINQFKWSEALDNAFVPGMAKELTLTVLQELRKRGKVRVALYGRDESTLEPLLNWCLKGIEDVRSASIVADWVAVVLELYGNTLESSPVLQELMIDLKTKVRHEIHKSKEAQRIEGMLQLLTS
notes: Utp5 residues 433-591, as m14; Utp15 residues 380-513, as m15; This complex was formed before it was mixed with His6-Utp4
B2: CTD of Utp15 (residue 380-513) (domain or fragment, UniProt Q04305 380-513, looked up)
chain: B1 chain 2
notes: Utp15, subunit of UtpA, residues 380-513; The tags were cleaved with Ulp1; also called Utp15 CTD
B3: C-terminal domain (CTD) of Utp5 (residue 433-591) (domain or fragment, UniProt Q04177 433-591, looked up)
chain: B1 chain 1
notes: Utp5, subunit of UtpA, residues 433-591; The tags were cleaved with Ulp1; also called Utp5 CTD
B4: Utp8–Utp9 CTD complex (complex)
chain 1: DYPKTLTFLLTHPLFPLSRTRNLLSLLRDQPRLFKQAIVTCPNLPLNELLEELFSIRNRELLLDISFRILQDFTRDSIKQEMKKLSKLDVQNFIEFITSGGEDSSPECFNPSQSTQLFQLLSLVLDSIGLFSLEGALLENLTLYIDKQVEIAERNTELWNLIDTKGFQHGFASSTFDNGTSQKRALPTYTMEYLDI
chain 2: QPEVQHEKKETETKINKKVSKSDQVEIANILSSHLEANSTEILDDLMSGSWTEPEIKKFILTKINTVDHLSKIFLTISKSITQNPWNEENLLPLWLKWLLTLKSGELNSIKDKHTKKNCKHLKSALRSSEEILPVLLGIQGRLEMLRRQAKLREDLAQLSMQEGEDDEIEVIEHSNVISNPLQDQASPVEKLEPDSIVYANGESDEFVD
notes: Utp9 residues 361-569, as m17; This complex was formed before it was mixed with His6-Utp4

Columns and labels:
[1] = biological target: T1, Utp4; experiment: co-purification; purified Utp5–Utp15 CTD complex, Utp8–Utp9 CTD complex and His6-tagged Utp4 mixed; HisTrap and gel filtration; details: both partners purified
[2] = biological target: T1, Utp4; experiment: cross-linking; UtpA sub-complex (0.5 μg/μL) with 0.5 mM BS^3 at RT for 45 min, quenched with 20 mM NH4HCO3; LC-MS/MS; details: both partners purified

| Binder | binding result [1] | binding result [2] |
| --- | --- | --- |
| B1 | binds | – |
| B2 | – | binds |
| B3 | – | binds |
| B4 | binds | – |
